From patent US20060003939

Experiments:
[1] = biological target: 35S-methionine labeled wild type DIAP1, in vitro translated from diap1-pET14b (UniProt Q24306)
[2] = biological target: His-DIAP1 21-4S mutant (RING domain mutant), in vitro translated from diap1 21-4S pET14b (UniProt Q24306)
Sequence of His-DIAP1 21-4S mutant (RING domain mutant), in vitro translated from diap1 21-4S pET14b (Q24306 other isoform, or with tags, fused parts or gaps mutant): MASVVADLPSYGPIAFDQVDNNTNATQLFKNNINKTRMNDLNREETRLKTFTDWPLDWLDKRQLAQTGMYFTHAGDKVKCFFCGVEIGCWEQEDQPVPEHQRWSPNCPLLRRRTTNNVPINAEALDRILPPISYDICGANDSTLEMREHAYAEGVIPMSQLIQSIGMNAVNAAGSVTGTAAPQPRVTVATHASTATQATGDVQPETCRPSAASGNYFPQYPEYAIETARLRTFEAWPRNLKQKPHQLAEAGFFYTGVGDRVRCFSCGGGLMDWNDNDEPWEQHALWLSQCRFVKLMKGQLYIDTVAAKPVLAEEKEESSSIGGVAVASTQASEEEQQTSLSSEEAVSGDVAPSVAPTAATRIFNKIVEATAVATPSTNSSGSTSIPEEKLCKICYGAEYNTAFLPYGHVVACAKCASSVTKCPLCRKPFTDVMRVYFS

Sequence of 35S-methionine labeled wild type DIAP1, in vitro translated from diap1-pET14b (Q24306 whole entry, the tested form may be a part): as the sequence (Q24306 other isoform, or with tags, fused parts or gaps mutant) above, with Y406C counted along it

For His-UBCD1, the “in vitro ubiquitination reaction” value [1] was “Wild-type DIAP1 (lane 4) showed marked ubiquitination” and the “in vitro ubiquitination reaction” value [2] was “whereas the His-DIAP1^21-4S mutant (RING domain mutant) did not (lane 7), in the presence of ubcD1”.
